Laboratory results as given in US20040013664A1.

Target: Fas receptor on human cells (Jurkat, HT-29) (human) (UniProt P25445)
Experiment: cell-based or functional assay

Chain of Fas receptor on human cells (Jurkat, HT-29) (human) (P25445 26-335): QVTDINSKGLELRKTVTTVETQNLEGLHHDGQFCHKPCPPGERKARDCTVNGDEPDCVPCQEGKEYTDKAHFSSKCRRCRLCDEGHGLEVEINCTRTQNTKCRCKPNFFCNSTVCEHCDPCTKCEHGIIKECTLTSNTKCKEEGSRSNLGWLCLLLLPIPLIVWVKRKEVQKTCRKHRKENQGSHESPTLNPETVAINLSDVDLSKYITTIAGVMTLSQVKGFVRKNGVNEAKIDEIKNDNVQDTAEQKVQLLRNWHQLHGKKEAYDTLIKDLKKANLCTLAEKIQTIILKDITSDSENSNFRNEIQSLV

- % Cells undergoing apoptosis (Jurkat, annexin/propidium iodide FACS); FasL (20 ng): 8.87%
Substance: sFas ligand (Alexis Corporation, FLAG epitope tag at its N-terminus) (from UniProt P48023 103-281)
- decrease in Jurkat cell viability (ALOMAR blue): 50%
